{"source": "paper PMC6446281", "key": {"HA-SUMO3 [1]": {"target": "HA-SUMO3 (UniProt P55854)", "test": "co-IP; 293T cells cotransfected with GFP-INwt/mut and HA-SUMO2 or HA-SUMO3, 40 h; lysis buffer 20 mM Tris-HCl pH 7.5, 100 mM NaCl, 0.5% NP-40, 0.5 mM EDTA; immunoprecipitated with anti-HA, blotted with anti-GFP; densitometry with GFP-INwt set as 100%"}, "[2]": {"target": "M1 + M2 and M1 + M3 mutants", "test": "co-IP; 293T cells cotransfected with GFP-INwt/mut and T7-LEDGF/p75, T7-Ku70 or HA-Ubc9; immunoprecipitated with rabbit anti-GFP, blotted with anti-T7 or anti-HA"}, "M2 and M3": {"target": "M2 and M3", "test": "co-IP; 293T cells cotransfected with GFP-INwt/mut and T7-LEDGF/p75, T7-Ku70 or HA-Ubc9; immunoprecipitated with rabbit anti-GFP, blotted with anti-T7 or anti-HA"}, "[3]": {"target": "GFP-IN 3VI mutant (V72A/I73A, I200A/V201A, V259A/V260A) (HIV-1)", "test": "co-IP"}, "HA-SUMO3 [4]": {"target": "HA-SUMO3 (UniProt P55854)", "test": "co-IP (IP anti-HA, WB anti-GFP) with densitometric analysis", "details": "293 T cells cotransfected with GFP-INwt/mut and HA-SUMO3; parent: est. 1.0; read off a plot"}}}
{"substance": "GFP-IN mutant M3 (V259A/V260A) (enzyme)", "values": [{"measurement": "percent reduction in binding against GFP-INwt", "setting": "HA-SUMO3 [1]", "result": 67, "unit": "%"}]}
{"substance": "T7-LEDGF/p75 (lens-epithelium-derived growth factor) (from UniProt O75475 1-530) (natural protein)", "values": [{"measurement": "percent of the binding of INwt", "setting": "[2]", "result": "10 to 20", "unit": "%"}, {"measurement": "percent of the binding of INwt", "setting": "M2 and M3", "result": "40 to 60", "unit": "%"}, {"measurement": "percent of the binding of INwt", "setting": "[3]", "result": "< 10", "unit": "%"}]}
{"substance": "T7-Ku70 (from UniProt P12956 1-609) (natural protein)", "values": [{"measurement": "fold change in binding against INwt", "setting": "[3]", "result": 2, "unit": "fold"}]}
{"substance": "GFP-IN mutant M2 (I200A/V201A) (enzyme)", "values": [{"measurement": "percent reduction in binding against GFP-INwt", "setting": "HA-SUMO3 [1]", "result": 80, "unit": "%"}]}
{"substance": "GFP-IN wild type (HIV-1 integrase, codon-optimized, fused to AcGFP) V72A; I73A; I200A; V201A; V259A; V260A", "values": [{"measurement": "ratio to parent", "setting": "HA-SUMO3 [4]", "result": 0.01}]}
{"substance": "GFP-IN wild type (HIV-1 integrase, codon-optimized, fused to AcGFP) V72A; I73A", "values": [{"measurement": "ratio to parent", "setting": "HA-SUMO3 [4]", "result": 1.2}]}
{"substance": "GFP-IN wild type (HIV-1 integrase, codon-optimized, fused to AcGFP) K46R; K136R; K244R", "values": [{"measurement": "ratio to parent", "setting": "HA-SUMO3 [4]", "result": 1.1}]}
